The values below are quoted from earlier work in PMC11528372.

Conditions in all cases: cited from earlier work
Data set [1] concerns the target Asp85 (UniProt position 98, WARYADWLFTT).
The target in data set [2] is Asp74 (UniProt position 74, WGRYIDWVVTT).
For data set [3], the target named is Asp121 (UniProt position 121, AYRYVDWLLTV).
For data set [4], the target named is Asp97 (UniProt position 97, VFRYIDWLLTV).

Where only a bound is given, the exact number is not on record here.

“Bacteriorhodopsin (BR) (Halobacterium salinarum)”: the pKa in data set [1] is listed as ~2.6.
For “Cyanorhodopsin N2098R (Calothrix sp. NIES-2098 rhodopsin) (Calothrix sp. NIES-2098)”, the pKa in data set [2] is recorded as <2.0.
On to “Gloeobacter rhodopsin (GR) (Gloeobacter violaceus PCC 7421)”, for which the pKa in data set [3] is on record as ~5.9.
“Green-absorbing proteorhodopsin (GPR) (uncultured marine gamma proteobacterium EBAC31A08)”: the pKa in data set [4] is ~7.9.
